Data: publication PMC5448812, “Distinct DNA-binding surfaces in the ATPase and linker domains of MutLγ determine its substrate specificities and exert separable functions in meiotic recombination and mismatch repair”

How the values were obtained:
HisFlag-Mlh1;Mlh3 [1] = molecular target: T1, HisFlag-Mlh1;Mlh3 (Saccharomyces cerevisiae (S288c strain …, UniProt P38920;Q12083 1-769;1-715, |)); assay: competition; labeled poly-dT 80 nt; 500x excess in nt; EMSA: 25 mM Tris-HCl pH 7.5, 15% glycerol, 100 mM NaCl, 2 mM DTT, 5 mM EDTA, 1 mg/ml BSA, 30 min 30 C, 1 nM DNA; pull-down: similar, 10% glycerol, 0.2 mg/ml BSA, 0.1% Triton X-100, 4 C; details: protein: recombinant;recombinant; tags: N-terminal 6xHis-2xFlag;none; copies: 1;1
T1 sequence 1: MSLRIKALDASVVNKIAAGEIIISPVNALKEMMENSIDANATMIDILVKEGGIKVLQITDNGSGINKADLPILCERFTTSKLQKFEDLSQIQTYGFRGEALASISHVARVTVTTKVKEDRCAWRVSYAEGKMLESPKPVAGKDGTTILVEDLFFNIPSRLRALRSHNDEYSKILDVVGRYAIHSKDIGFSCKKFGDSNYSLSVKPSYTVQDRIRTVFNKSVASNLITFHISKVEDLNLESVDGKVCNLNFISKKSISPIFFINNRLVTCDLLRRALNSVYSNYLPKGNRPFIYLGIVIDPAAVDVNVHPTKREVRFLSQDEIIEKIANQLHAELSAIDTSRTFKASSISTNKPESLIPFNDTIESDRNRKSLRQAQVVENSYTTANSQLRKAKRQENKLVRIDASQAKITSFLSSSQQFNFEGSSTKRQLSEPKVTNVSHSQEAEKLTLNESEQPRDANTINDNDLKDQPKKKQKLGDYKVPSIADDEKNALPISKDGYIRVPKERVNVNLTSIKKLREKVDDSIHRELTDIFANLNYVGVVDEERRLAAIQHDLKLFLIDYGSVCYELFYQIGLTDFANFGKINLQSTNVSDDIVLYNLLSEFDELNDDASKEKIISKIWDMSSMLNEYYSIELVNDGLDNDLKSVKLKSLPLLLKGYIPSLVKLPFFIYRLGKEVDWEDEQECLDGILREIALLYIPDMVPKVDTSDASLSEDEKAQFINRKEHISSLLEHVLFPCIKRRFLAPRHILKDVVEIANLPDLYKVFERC
T1 sequence 2: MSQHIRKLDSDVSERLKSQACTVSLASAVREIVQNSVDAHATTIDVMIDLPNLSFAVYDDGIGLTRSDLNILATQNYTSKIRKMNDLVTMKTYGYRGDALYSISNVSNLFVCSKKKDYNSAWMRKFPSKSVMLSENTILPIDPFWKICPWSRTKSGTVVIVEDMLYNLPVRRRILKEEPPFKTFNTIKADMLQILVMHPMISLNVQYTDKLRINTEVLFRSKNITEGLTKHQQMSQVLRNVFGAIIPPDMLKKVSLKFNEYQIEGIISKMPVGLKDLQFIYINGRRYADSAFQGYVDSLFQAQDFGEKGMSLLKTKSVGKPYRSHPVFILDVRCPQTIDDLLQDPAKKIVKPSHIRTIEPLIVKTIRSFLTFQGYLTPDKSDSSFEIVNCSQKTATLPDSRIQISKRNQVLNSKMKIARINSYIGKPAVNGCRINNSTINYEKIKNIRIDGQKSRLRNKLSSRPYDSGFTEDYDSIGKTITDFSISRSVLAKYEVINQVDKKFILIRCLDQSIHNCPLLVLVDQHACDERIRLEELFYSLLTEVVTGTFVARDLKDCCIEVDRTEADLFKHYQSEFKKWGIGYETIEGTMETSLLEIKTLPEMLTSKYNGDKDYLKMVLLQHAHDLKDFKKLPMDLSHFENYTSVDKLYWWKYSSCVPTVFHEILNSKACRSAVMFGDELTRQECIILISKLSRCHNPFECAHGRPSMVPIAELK

HisFlag-Mlh1;Mlh3 [2] = molecular target: T1, HisFlag-Mlh1;Mlh3; assay: EMSA; Hill slope 2.9 +/- 0.27; 5 mM EDTA; EMSA: 25 mM Tris-HCl pH 7.5, 15% glycerol, 100 mM NaCl, 2 mM DTT, 5 mM EDTA, 1 mg/ml BSA, 30 min 30 C, 1 nM DNA; pull-down: similar, 10% glycerol, 0.2 mg/ml BSA, 0.1% Triton X-100, 4 C; details: protein: recombinant;recombinant; tags: N-terminal 6xHis-2xFlag;none; copies: 1;1; label: 5'-32P when used as probe
HisFlag-Mlh1;Mlh3 [3] = molecular target: T1, HisFlag-Mlh1;Mlh3; assay: FeBABE footprinting; cleavage in Mlh1 N-terminal domain and linker; EMSA: 25 mM Tris-HCl pH 7.5, 15% glycerol, 100 mM NaCl, 2 mM DTT, 5 mM EDTA, 1 mg/ml BSA, 30 min 30 C, 1 nM DNA; pull-down: similar, 10% glycerol, 0.2 mg/ml BSA, 0.1% Triton X-100, 4 C; details: protein: recombinant;recombinant; tags: N-terminal 6xHis-2xFlag;none; copies: 1;1; label: 3'-biotin
[4] = molecular target: T2, Mlh1 untagged;HisFlag-Mlh3 (Saccharomyces cerevisiae (S288c strain …, UniProt P38920;Q12083 1-769;1-715, |)); assay: FeBABE footprinting; cleavage in Mlh3 N-terminal domain and linker; EMSA: 25 mM Tris-HCl pH 7.5, 15% glycerol, 100 mM NaCl, 2 mM DTT, 5 mM EDTA, 1 mg/ml BSA, 30 min 30 C, 1 nM DNA; pull-down: similar, 10% glycerol, 0.2 mg/ml BSA, 0.1% Triton X-100, 4 C; details: protein: recombinant;recombinant; tags: none;N-terminal 6xHis-2xFlag; copies: 1;1; label: 3'-biotin
T2 sequence 1: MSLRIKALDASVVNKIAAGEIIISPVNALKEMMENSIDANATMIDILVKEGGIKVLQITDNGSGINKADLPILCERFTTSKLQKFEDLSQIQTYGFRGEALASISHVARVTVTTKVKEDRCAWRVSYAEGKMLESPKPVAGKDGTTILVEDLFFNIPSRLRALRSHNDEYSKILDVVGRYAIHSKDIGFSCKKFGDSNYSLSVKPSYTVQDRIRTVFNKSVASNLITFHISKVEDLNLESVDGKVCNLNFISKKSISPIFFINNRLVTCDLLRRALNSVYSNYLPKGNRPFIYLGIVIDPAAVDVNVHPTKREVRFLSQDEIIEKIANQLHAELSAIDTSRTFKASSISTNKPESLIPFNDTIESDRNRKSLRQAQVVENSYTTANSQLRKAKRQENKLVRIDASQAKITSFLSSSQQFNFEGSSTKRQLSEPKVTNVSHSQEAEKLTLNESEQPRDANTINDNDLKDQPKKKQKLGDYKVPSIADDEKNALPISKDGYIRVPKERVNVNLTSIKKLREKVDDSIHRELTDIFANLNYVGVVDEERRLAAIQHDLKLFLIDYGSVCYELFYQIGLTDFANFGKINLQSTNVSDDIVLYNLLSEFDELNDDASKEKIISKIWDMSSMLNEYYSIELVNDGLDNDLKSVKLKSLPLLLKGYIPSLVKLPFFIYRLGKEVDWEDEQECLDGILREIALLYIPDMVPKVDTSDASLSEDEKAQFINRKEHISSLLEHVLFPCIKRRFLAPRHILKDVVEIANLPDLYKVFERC
T2 sequence 2: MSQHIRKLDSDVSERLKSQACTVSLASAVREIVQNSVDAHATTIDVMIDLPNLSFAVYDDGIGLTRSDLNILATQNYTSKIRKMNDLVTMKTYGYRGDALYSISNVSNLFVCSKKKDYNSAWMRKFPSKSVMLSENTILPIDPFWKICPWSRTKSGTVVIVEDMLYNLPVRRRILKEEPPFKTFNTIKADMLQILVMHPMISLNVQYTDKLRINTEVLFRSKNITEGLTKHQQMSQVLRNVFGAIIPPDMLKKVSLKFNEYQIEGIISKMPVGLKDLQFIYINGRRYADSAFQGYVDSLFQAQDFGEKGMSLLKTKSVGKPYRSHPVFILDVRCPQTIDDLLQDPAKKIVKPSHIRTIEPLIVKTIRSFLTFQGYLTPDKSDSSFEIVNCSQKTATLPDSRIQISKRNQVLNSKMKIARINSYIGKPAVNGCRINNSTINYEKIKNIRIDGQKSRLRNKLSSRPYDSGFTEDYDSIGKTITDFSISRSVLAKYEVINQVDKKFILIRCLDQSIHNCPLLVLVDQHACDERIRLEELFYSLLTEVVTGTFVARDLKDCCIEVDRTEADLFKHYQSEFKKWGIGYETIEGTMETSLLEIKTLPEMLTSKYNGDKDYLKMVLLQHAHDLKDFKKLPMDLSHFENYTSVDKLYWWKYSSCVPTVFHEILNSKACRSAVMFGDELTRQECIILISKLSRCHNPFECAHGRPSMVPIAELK

HisFlag-Mlh1;Mlh3 [5] = molecular target: T1, HisFlag-Mlh1;Mlh3; assay: EMSA; Hill slope 2.0 +/- 0.05; 5 mM EDTA; EMSA: 25 mM Tris-HCl pH 7.5, 15% glycerol, 100 mM NaCl, 2 mM DTT, 5 mM EDTA, 1 mg/ml BSA, 30 min 30 C, 1 nM DNA; pull-down: similar, 10% glycerol, 0.2 mg/ml BSA, 0.1% Triton X-100, 4 C; details: protein: recombinant;recombinant; tags: N-terminal 6xHis-2xFlag;none; copies: 1;1; label: 5'-32P when used as probe; four-way junction, 40 bp arms
HisFlag-Mlh1;Mlh3 [6] = molecular target: T1, HisFlag-Mlh1;Mlh3; assay: FeBABE footprinting; mostly Mlh1 linker; EMSA: 25 mM Tris-HCl pH 7.5, 15% glycerol, 100 mM NaCl, 2 mM DTT, 5 mM EDTA, 1 mg/ml BSA, 30 min 30 C, 1 nM DNA; pull-down: similar, 10% glycerol, 0.2 mg/ml BSA, 0.1% Triton X-100, 4 C; details: protein: recombinant;recombinant; tags: N-terminal 6xHis-2xFlag;none; copies: 1;1; label: 3'-biotin on strand 1; four-way junction, 40 bp arms
[7] = molecular target: T2, Mlh1 untagged;HisFlag-Mlh3; assay: FeBABE footprinting; Mlh3 linker enriched; EMSA: 25 mM Tris-HCl pH 7.5, 15% glycerol, 100 mM NaCl, 2 mM DTT, 5 mM EDTA, 1 mg/ml BSA, 30 min 30 C, 1 nM DNA; pull-down: similar, 10% glycerol, 0.2 mg/ml BSA, 0.1% Triton X-100, 4 C; details: protein: recombinant;recombinant; tags: none;N-terminal 6xHis-2xFlag; copies: 1;1; label: 3'-biotin on strand 1; four-way junction, 40 bp arms

B1: ssDNA 10 nt competitor (poly-dT?) (ssDNA)
DNA: TTTTTTTTTT
- binding result (HisFlag-Mlh1;Mlh3 [1]): no binding

B2: ssDNA80 (cb099, poly-dT) (ssDNA)
DNA: TTTTTTTTTTTTTTTTTTTTTTTTTTTTTTTTTTTTTTTTTTTTTTTTTTTTTTTTTTTTTTTTTTTTTTTTTTTTTTTT
- Kd (HisFlag-Mlh1;Mlh3 [2]): 45.9 nM

B3: ssDNA+ (cb361) (ssDNA)
DNA: TTTTTTTTTTTTTTTTTTTTTTTTTTTTTTTTTTTTTTTTTTTTTTTTTTTTTTTTTTTTTTTTTTTTTTTTTTTTTTTT
modifications: phosphorothioates every 8 nt, FeBABE-conjugated
- binding result (HisFlag-Mlh1;Mlh3 [3]): binds
- binding result [4]: binds

B4: HJ80 (cb095-098) (structured_DNA)
DNA 1: CTAGTATAGAGCCGGCGCGCCATGTCTAGATAGCGTTAGGTCTGCCGAATAGTACTACTCGGATCCCGAGCGAACCACGC
DNA 2: GCGTGGTTCGCTCGGGATCCGAGTAGTACTATTCGGCAGAGGATTCGAATAGGCCTAATCGAATTCCGCCATCGATGCAC
DNA 3: GTGCATCGATGGCGGAATTCGATTAGGCCTATTCGAATCCAGACGCGAGTAGATCTTCACGGTACCCGCGGTTACCCGTG
DNA 4: CACGGGTAACCGCGGGTACCGTGAAGATCTACTCGCGTCTCCTAACGCTATCTAGACATGGCGCGCCGGCTCTATACTAG
- Kd (HisFlag-Mlh1;Mlh3 [5]): 72.9 nM

B5: HJ+1 (cb256, 351, 369, 98) (structured_DNA)
DNA 1: CTAGTATAGAGCCGGCGCGCCATGTCTAGATAGCGTTAGGTCTGCCGAATAGTACTACTCGGATCCCGAGCGAACCACGC
DNA 2: GCGTGGTTCGCTCGGGATCCGAGTAGTACTATTCGGCAGAGGATTCGAATAGGCCTAATCGAATTCCGCCATCGATGCAC
DNA 3: GTGCATCGATGGCGGAATTCGATTAGGCCTATTCGAATCCAGACGCGAGTAGATCTTCACGGTACCCGCGGTTACCCGTG
DNA 4: CACGGGTAACCGCGGGTACCGTGAAGATCTACTCGCGTCTCCTAACGCTATCTAGACATGGCGCGCCGGCTCTATACTAG
modifications: phosphorothioates in strands 2 and 3 (segment 1), FeBABE-conjugated
- binding result (HisFlag-Mlh1;Mlh3 [6]): binds
- binding result [7]: binds
